Consider 3 molecules from US7301005B2, “Immunomodulatory peptides derived from heat shock proteins and uses thereof” (priority 2000, dated 2007).

In one experiment the test system is RA patients. As to the kind of experiment: Phase I clinical trial of mucosal tolerization to dnaJP1. In kind it is in vivo, human. The following applies: 15 RA patients, by mouth, 6 months. As to the method: FIGS. 26A to 26E show the results of treatment-induced modulation of T cell responses to dnaJP1. […] Evaluation was performed at monthly intervals. Controls included PHA as a general mitogen and dnaJpv (SEQ ID NO:28). Evaluation by FACS at monthly intervals of intracellular cytokine production (pro-inflammatory—FIGS. 26 B, C and D; toleragenic—FIG. 26E) by PBMC of the patients who were responsive at the screening. Results are expressed as % CD3+ cells in dnaJP1 stimulated/unstimulated cultures.
In the Phase I clinical trial, 15 RA patients were treated with three different doses of dnaJP1 (four times per day, by mouth) for 6 months. Entry criteria required clinically active disease and pro-inflammatory T cell responsiveness in vitro to the peptide.

Experiment [1] relates to SFMC from patients with persistent oJIA. As to the kind of experiment: FACS analysis of CTLA+/CD25/CD4 positive cells after peptide stimulation. The format is cell-based, human. To be noted: FIG. 24A. The text has this:
“TC” indicates tissue culture not stimulated. Bars represent SD.
FACS analysis was used to evaluate the percent of CTLA+/CD25/CD4 positive cells following stimulation of representative SFMC from patients with persistent oJIA with non-homologous human peptide 134. The % of CTLA+/CD25/CD4 positive cells, which are believed to have a regulatory function, was higher in the peptide treated cells as compared to cells maintained under control conditions (FIG. 24A). Expansion of the regulatory cells in response to peptide 134 correlated well with production of IL-10 in the same culture conditions (FIG. 24B).
A general note: Flow cytometry measures light scatter and fluorescence of single cells or particles in a stream.

Experiment [2] concerns SFMC from patients with oJIA. As to the kind of experiment: Cytokine production in culture supernatants of SFMC incubated with dnaJ and restimulated with autologous feeder cells plus peptide. In kind it is cell-based, human. The text has this:
Results are expressed as pg/ml (mean+SD).
Cytokine production to the same peptides was examined in culture supernatants of SFMC from patients with oJIA. […] SFMC from only one of 21 patients with oJIA produced detectable levels of the anti-inflammatory cytokine IL-10, and none produced detectable levels of IL-4.
(§1) In order to evaluate whether human homologous peptides could be the target of cross-recognition leading to self reactivity, human peptides derived from regions of HSJ1, HDJ1, or HDJ2 having sequence homology with E. coli dnaJ were studied. SFMC of 14 patients with oJIA presenting a SI to the recombinant E. coli hsp dnaJ greater than 3 were restimulated for 96 hr with autologous cells in presence or absence of human peptide 2, 3, or 5, which are homologs of bacterial peptide 4; human peptide 20, 21, or 23, which are homologs of bacterial peptide 22; or human peptide 164, 167, or 176, which are homologs of bacterial peptide 174. SFMC proliferative responses, pro-inflammatory cytokine production, and anti-inflammatory IL-4 levels were overall similar between the peptides derived from human dnaJ proteins and the homologous bacterial peptides.
Results are expressed as SI or pg/ml (mean+SD).

The subject of experiment [3] is SFMC from patients with oJIA. As to the kind of experiment: Proliferative response of SFMC incubated with dnaJ and restimulated with autologous feeder cells plus peptide. In kind it is cell-based, human. The following applies: persistent n=16, extended n=15; p=0.05. As to the method: Results, expressed as stimulation index (SI), are shown as mean+SD.
In order to identify possible relevant epitopes on the bacterial dnaJ protein, PBMC and SFMC of patients with oJIA were incubated for 72 hr with dnaJ, and restimulated with autologous feeder cells the in presence or absence of selected E. coli derived MHC class II binder peptides for 96 hr.
as §1
Results are expressed as SI or pg/ml (mean+SD). […]
To explore the possible correlation of clinical features with the development of peptide-induced immune modulation, oJIA patients were grouped according to the course of disease, including those with persistent disease (n=16), and those with extended disease (n=15) o-JIA. (FIG. 25).

Experiment [4] concerns CD3+CD69+ cells in PBMC and SFMC. As to the kind of experiment: Evaluation of activated CD3+CD69+ T cells after incubation with recombinant E. coli hsp dnaJ. The format is cell-based, human. The following applies: p=0.0002. As to the method: FIG. 1B provides an evaluation of CD69+ T cells from healthy subjects (CTRL) and patients with oJIA following 72 hour incubation with recombinant E. coli hsp dnaJ. Results, expressed as percentage CD3+CD69+ cells, are shown as mean+SD.
To evaluate whether dnaJ-specific T cells were enriched at the synovial sites of inflammation, synovial fluid mononuclear cells (SFMC) from all patients with oJIA were stimulated with dnaJ for 96 hr.

Experiment [5] concerns synovial fluid mononuclear cells (SFMC) from patients with oJIA. As to the kind of experiment: Proliferative response (stimulation index) of SFMC stimulated with antigen for 96 hr. The format is cell-based, human. The following applies: for ratio SI SFMC/SI PBMC, dnaJ compared with TT: paired PBMC-SFMC samples from oJIA patients.
Experiment [6] relates to peripheral blood mononuclear cells (PBMC). As to the kind of experiment: Proliferative response (stimulation index) of PBMC stimulated with antigen for 96 hr. In kind it is cell-based, human. To be noted: 10 healthy subjects vs 21 patients with oJIA.
For experiment [7], the system named is PBMC and SFMC from healthy controls and patients with oJIA. As to the kind of experiment: Cytokine production in culture supernatants of PBMC or SFMC stimulated with recombinant E. coli hsp dnaJ for 72 hr. In kind it is cell-based, human. The protocol: Results, expressed as pg/ml, are shown as mean+SD.
The production of the pro-inflammatory cytokines interferon-gamma (IFNγ) and tumor necrosis factor-alpha (TNFα), and the anti-inflammatory cytokines interleukin-4 (IL-4) and IL-10 was evaluated in culture supernatants of PBMC from healthy controls and in PBMC-SFMC paired samples from patients with oJIA incubated for 72 hr with or without dnaJ.

Consider “QKRAAYDQYGHAAFE (listed as Escherichia coli) [dnaJP1]”, for which the “treatment-induced change of T cell cytokine responses” value with RA patients was “dramatic immune deviation from pro-inflammatory to regulatory-type cytokines”.

With “SGPFFTFSSSFPGHS (listed as Homo sapiens) [Peptide 134, non-homologous human peptide (HSJ1)]”, the “% of CTLA+/CD25/CD4 positive cells vs control conditions” value in experiment [1] is reported as “higher”. Further, in experiment [2] (p=0.0012), the “IL-10 production, extended disease vs persistent o-JIA” value is recorded as “highly significant difference”. The “IFN production, extended disease vs persistent o-JIA” value in experiment [2] (p=0.076) is on record as “border line level of statistical significance”. For the same molecule, the “Proliferative responses, extended disease vs persistent o-JIA” value in experiment [3] is recorded as “significantly lower”.

B1: dnaJ: recombinant E. coli heat shock protein dnaJ (protein, UniProt P08622 2-376, looked up)
Chaperone protein DnaJ: AKQDYYEILGVSKTAEEREIRKAYKRLAMKYHPDRNQGDKEAEAKFKEIKEAYEVLTDSQKRAAYDQYGHAAFEQGGMGGGGFGGGADFSDIFGDVFGDIFGGGRGRQRAARGADLRYNMELTLEEAVRGVTKEIRIPTLEECDVCHGSGAKPGTQPQTCPTCHGSGQVQMRQGFFAVQQTCPHCQGRGTLIKDPCNKCHGHGRVERSKTLSVKIPAGVDTGDRIRLAGEGEAGEHGAPAGDLYVQVQVKQHPIFEREGNNLYCEVPINFAMAALGGEIEVPTLDGRVKLKVPGETQTGKLFRMRGKGVKSVRGGAQGDLLCRVVVETPVGLNERQKQLLQELQESFGGPTGEHNSPRSKSFFDGVKKFFDDLTR
Turning to B1, the “percentage of activated T cells (CD3+CD69+ cells), SFMC with respect to PBMC” value in experiment [4] is on record as “significantly higher”. The “mean stimulation index (SI) of SFMC vs corresponding PBMC” value in experiment [5] (oJIA patients, 96 hr, p=0.01) was “significantly higher”. The figures for the “ratio SI SFMC/SI PBMC, dnaJ compared with TT” value in experiment [5] and in experiment [5] (listed as recombinant dnaJ) were “significantly (p=0.038) higher” and “significantly (p<0.02) greater”, respectively. For the same molecule, in experiment [6], the “Proliferative responses of PBMC, healthy subjects vs oJIA patients” value was “not significantly different”. Further, in experiment [7] (72 hr), the “cytokine production from PBMC of patients and controls” value is listed as “no difference”. The IL-4 levels entry in experiment [7] (controls and patients, supernatants from PBMC and SFMC) is “below the detection limit”. The “IL-10 production, SFMC vs PBMC” value in experiment [7] (oJIA patients, 72 hr) is recorded as “comparable in the two compartments”. In addition, in experiment [7] (oJIA patients, 72 hr), the “TNFα production, SFMC vs PBMC” value is listed as “comparable in the two compartments”. For the same molecule, the “IFNγ production, SFMC vs PBMC” value in experiment [7] (oJIA patients, 72 hr, p<0.01) is reported as “significantly higher production”.
